Measured values as given in publication PMC11009412, “Pathogenic mutations of human phosphorylation sites affect protein–protein interactions” (Nature Communications, 2024).

Test system: BirA*-FLAG-GATAD1 variants in Flp-In-293 cells
Test: BioID proximity labelling of full-length GATAD1 variants (SILAC)
Type: cell-based, human
Details: GATAD1 WT vs S102P, significant proteins only; for Log2_Ratio.H.L.normalized.WT_S102P_forward: forward experiment (label swap performed, sign inverted against the H/L ratio); for Log2_Ratio.H.L.normalized.WT_S102P_forward / Log2_Ratio.H.L.normalized.WT_S102P_reverse: log2 of normalized H/L ratio; for Ratio.H.L.normalized.WT_S102P_forward: forward experiment; for Log2_Ratio.H.L.normalized.WT_S102P_reverse / Ratio.H.L.normalized.WT_S102P_reverse: reverse experiment
Description: The GATAD1 gene variants were ordered in a pTwist ENTR Kozak vector from Twist Bioscience. The genes were then transferred to a pDEST_pcDNA5_BirA_FLAG_Nterm vector[97] using the Gateway Clonase II system (Thermo Fisher Scientific). The resulting vectors, pEXPR_GATAD1-WT_N-term_BirA_FLAG, pEXPR_GATAD1-S102P_N-term_BirA_FLAG, pEXPR_GATAD1-S102D_N-term_BirA_FLAG, and pEXPR_GATAD1-S102A_N-term_BirA_FLAG, were used to generate tetracycline-inducible stable Flp-In^TM-293 T-REx cells. A 6-well plate was co-transfected with 0.5 µg of the pEXPR plasmid and 1 µg of the pOG44 Flp-recombinase expression vector (Thermo Fisher Scientific) using 4.5 µg of PEI (Polysciences) as a transfection reagent. The following day, the cells were trypsinized and transferred to a 10 cm dish containing DMEM supplemented with 10% FCS and 200 µg/ml hygromycin B (Invivogen) for selection. The cells were cultured for approximately 18 days with media exchange every 3 days until visible colonies were observed. After around 18 days, the colonies were trypsinized and transferred to another 10 cm dish for further characterization and experiments.
Stable Flp-In^TM-293 cell lines expressing GATAD1 variants were cultured using SILAC light (Lys0, Arg0) and SILAC heavy (Lys8, Arg10) media, as explained in the cell culture section. After full labeling, cells were split into 15 cm dishes and were treated with 1 μg/mL tetracycline for 24 h to induce the expression of GATAD1. After the induction period, cells were incubated with 50 μM biotin overnight for proximity biotinylation. As a control, wild-type GATAD1 cells, without biotin or tetracycline addition, were used. Samples were multiplexed, as shown in Supplementary Fig. 41A with both forward and reverse label swap (n = 2). Cells were then lysed in lysis buffer (50 mM Tris-HCl pH 7.5, 150 mM NaCl, 1% Triton X-100, 1 mM EDTA, 1 mM EGTA, 0.1% SDS) with freshly added protease inhibitors and 1% sodium deoxycholate. To digest the excess DNA, 1 μl of Benzonase was added, and the samples were incubated for 20 min at 37 °C. Biotinylated proteins were enriched for 3 h at 4 °C using streptavidin-sepharose beads (GE Cat# 17-5113-01). Beads were pre-washed twice with 0.01% BSA and twice with lysis buffer. After enrichment, the beads were washed one time with lysis buffer, two times with washing buffer (50 mM HEPES-KOH pH 8.0, 100 mM KCl, 10% glycerol, 2 mM EDTA, 0.1% NP-40), and six times with 50 mM ammonium bicarbonate. Beads were resuspended in ammonium bicarbonate, and an on-bead protein digest with 1 μg of trypsin followed overnight. The next day, the digested proteins were transferred to a fresh tube and were incubated with 10 mM DTT for 30 min at 37 °C and with 55 mM iodoacetamide for 20 min at 37 °C in the dark. Samples were desalted with StageTips.
Peptides were separated using reversed-phase liquid chromatography (EASY nLC II 1200, Thermo Fisher Scientific) with self-made C18 microcolumns (20 cm long) packed with ReproSil-Pur C18-AQ 1.9 μm resin (Dr. Maisch, cat# r119.aq.0001). The chromatography system was coupled online to the electrospray ion source (Proxeon) of an Orbitrap Exploris 480 mass spectrometer (Thermo Fisher Scientific). The mobile phase consisted of buffer A (0.1% formic acid and 5% acetonitrile) and buffer B (0.1% formic acid and 80% acetonitrile). Peptides were eluted using a gradient with increasing concentrations of buffer B over 110 minutes, at a flow rate of 250 nl/min. Mass spectrometry data was acquired in data-dependent mode with settings for one full scan (resolution: 60,000; m/z range: 350–1600; normalized AGC target: 300%; maximum injection time: 10 ms), followed by top 20 MS/MS scans using higher-energy collisional dissociation (resolution: 15,000; m/z range: 200–2000; normalized AGC target: 100%; maximum injection time: 120 ms; isolation width: 1.3 m/z; normalized collision energy: 28%).
Raw files were analyzed with MaxQuant, version 2.0.3.0. […]

Molecule	Log2_Ratio.H.L.normalized.WT_S102P_forward	Ratio.H.L.normalized.WT_S102P_forward	Log2_Ratio.H.L.normalized.WT_S102P_reverse	Ratio.H.L.normalized.WT_S102P_reverse
PPP1R10 (protein, UniProt Q96QC0 1-940, looked up) Serine/threonine-protein …: MGSGPIDPKELLKGLDSFLNRDGEVKSVDGISKIFSLMKEARKMVSRCTYLNILLQTRSPEILVKFIDVGGYKLLNNWLTYSKTTNNIPLLQQILLTLQHLPLTVDHLKQNNTAKLVKQLSKSSEDEELRKLASVLVSDWMAVIRSQSSTQPAEKDKKKRKDEGKSRTTLPERPLTEVKAETRAEEAPEKKREKPKSLRTTAPSHAKFRSTGLELETPSLVPVKKNASTVVVSDKYNLKPIPLKRQSNVAAPGDATPPAEKKYKPLNTTPNATKEIKVKIIPPQPMEGLGFLDALNSAPVPGIKIKKKKKVLSPTAAKPSPFEGKTSTEPSTAKPSSPEPAPPSEAMDADRPGTPVPPVEVPELMDTASLEPGALDAKPVESPGDPNQLTRKGRKRKSVTWPEEGKLREYFYFELDETERVNVNKIKDFGEAAKREILSDRHAFETARRLSHDNMEEKVPWVCPRPLVLPSPLVTPGSNSQERYIQAEREKGILQELFLNKESPHEPDPEPYEPIPPKLIPLDEECSMDETPYVETLEPGGSGGSPDGAGGSKLPPVLANLMGSMGAGKGPQGPGGGGINVQEILTSIMGSPNSHPSEELLKQPDYSDKIKQMLVPHGLLGPGPIANGFPPGGPGGPKGMQHFPPGPGGPMPGPHGGPGGPVGPRLLGPPPPPRGGDPFWDGPGDPMRGGPMRGGPGPGPGPYHRGRGGRGGNEPPPPPPPFRGARGGRSGGGPPNGRGGPGGGMVGGGGHRPHEGPGGGMGNSSGHRPHEGPGGGMGSGHRPHEGPGGSMGGGGGHRPHEGPGGGISGGSGHRPHEGPGGGMGAGGGHRPHEGPGGSMGGSGGHRPHEGPGHGGPHGHRPHDVPGHRGHDHRGPPPHEHRGHDGPGHGGGGHRGHDGGHSHGGDMSNRPVCRHFMMKGNCRYENNCAFYHPGVNGPPLP	1.288	0.4096	1.038	2.0533
NACC1 (protein, UniProt Q96RE7 1-527, looked up) Nucleus accumbens-associated …: MAQTLQMEIPNFGNSILECLNEQRLQGLYCDVSVVVKGHAFKAHRAVLAASSSYFRDLFNNSRSAVVELPAAVQPQSFQQILSFCYTGRLSMNVGDQFLLMYTAGFLQIQEIMEKGTEFFLKVSSPSCDSQGLHAEEAPSSEPQSPVAQTSGWPACSTPLPLVSRVKTEQQESDSVQCMPVAKRLWDSGQKEAGGGGNGSRKMAKFSTPDLAANRPHQPPPPQQAPVVAAAQPAVAAGAGQPAGGVAAAGGVVSGPSTSERTSPGTSSAYTSDSPGSYHNEEDEEEDGGEEGMDEQYRQICNMYTMYSMMNVGQTAEKVEALPEQVAPESRNRIRVRQDLASLPAELINQIGNRCHPKLYDEGDPSEKLELVTGTNVYITRAQLMNCHVSAGTRHKVLLRRLLASFFDRNTLANSCGTGIRSSTNDPRRKPLDSRVLHAVKYYCQNFAPNFKESEMNAIAADMCTNARRVVRKSWMPKVKVLKAEDDAYTTFISETGKIEPDMMGVEHGFETASHEGEAGPSAEALQ	1.531	0.346	1.188	2.2785
NOL8 (protein, UniProt Q76FK4 1-1167, looked up) Nucleolar protein 8: MKVNRETKRLYVGGLSQDISEADLQNQFSRFGEVSDVEIITRKDDQGNPQKVFAYINISVAEADLKKCMSVLNKTKWKGGTLQIQLAKESFLHRLAQEREAAKAKKEESTTGNANLLEKTGGVDFHMKAVPGTEVPGHKNWVVSKFGRVLPVLHLKNQHKRKIIKYDPSKYCHNLKKIGEDFSNTIPISSLTWELEGGNDPMSKKRRGEFSDFHGPPKKIIKVQKDESSTGSLAMSTRPRRVIERPPLTQQQAAQKRTCDSITPSKSSPVPVSDTQKLKNLPFKTSGLETAKKRNSISDDDTDSEDELRMMIAKEENLQRTTQPSINESESDPFEVVRDDFKSGVHKLHSLIGLGIKNRVSCHDSDDDIMRNDREYDSGDTDEIIAMKKNVAKVKNSTEFSQMEKSTKKTSFKNRENCELSDHCIKLQKRKSNVESALSHGLKSLNRKSPSHSSSSEDADSASELADSEGGEEYNAMMKNCLRVNLTLADLEQLAGSDLKVPNEDTKSDGPETTTQCKFDRGSKSPKTPTGLRRGRQCIRPAEIVASLLEGEENTCGKQKPKENNLKPKFQAFKGVGCLYEKESMKKSLKDSVASNNKDQNSMKHEDPSIISMEDGSPYVNGSLGEVTPCQHAKKANGPNYIQPQKRQTTFESQDRKAVSPSSSEKRSKNPISRPLEGKKSLSLSAKTHNIGFDKDSCHSTTKTEASQEERSDSSGLTSLKKSPKVSSKDTREIKTDFSLSISNSSDVSAKDKHAEDNEKRLAALEARQKAKEVQKKLVHNALANLDGHPEDKPTHIIFGSDSECETEETSTQEQSHPGEEWVKESMGKTSGKLFDSSDDDESDSEDDSNRFKIKPQFEGRAGQKLMDLQSHFGTDDRFRMDSRFLETDSEEEQEEVNEKKTAEEEELAEEKKKALNVVQSVLQINLSNSTNRGSVAAKKFKDIIHYDPTKQDHATYERKRDDKPKESKAKRKKKREEAEKLPEVSKEMYYNIAMDLKEIFQTTKYTSEKEEGTPWNEDCGKEKPEEIQDPAALTSDAEQPSGFTFSFFDSDTKDIKEETYRVETVKPGKIVWQEDPRLQDSSSEEEDVTEETDHRNSSPGEASLLEKETTRFFFFSKNDERLQGSDLFWRGVGSNMSRNSWEARTTNLRMDCRKKHKDAKRKMKPK	1.703	0.3071	1.269	2.4103
SUGP1 (protein, UniProt Q8IWZ8 1-645, looked up) SURP and G-patch …: MSLKMDNRDVAGKANRWFGVAPPKSGKMNMNILHQEELIAQKKREIEAKMEQKAKQNQVASPQPPHPGEITNAHNSSCISNKFANDGSFLQQFLKLQKAQTSTDAPTSAPSAPPSTPTPSAGKRSLLISRRTGLGLASLPGPVKSYSHAKQLPVAHRPSVFQSPDEDEEEDYEQWLEIKVSPPEGAETRKVIEKLARFVAEGGPELEKVAMEDYKDNPAFAFLHDKNSREFLYYRKKVAEIRKEAQKSQAASQKVSPPEDEEVKNLAEKLARFIADGGPEVETIALQNNRENQAFSFLYEPNSQGYKYYRQKLEEFRKAKASSTGSFTAPDPGLKRKSPPEALSGSLPPATTCPASSTPAPTIIPAPAAPGKPASAATVKRKRKSRWGPEEDKVELPPAELVQRDVDASPSPLSVQDLKGLGYEKGKPVGLVGVTELSDAQKKQLKEQQEMQQMYDMIMQHKRAMQDMQLLWEKAVQQHQHGYDSDEEVDSELGTWEHQLRRMEMDKTREWAEQLTKMGRGKHFIGDFLPPDELEKFMETFKALKEGREPDYSEYKEFKLTVENIGYQMLMKMGWKEGEGLGSEGQGIKNPVNKGTTTVDGAGFGIDRPAELSKEDDEYEAFRKRMMLAYRFRPNPLNNPRRPYY	1.6946	0.3089	1.162	2.2378
C19orf43 (protein, UniProt Q9BQ61 1-176, looked up) Telomerase RNA component …: MAARGRRAEPQGREAPGPAGGGGGGSRWAESGSGTSPESGDEEVSGAGSSPVSGGVNLFANDGSFLELFKRKMEEEQRQRQEEPPPGPQRPDQSAAAAGPGDPKRKGGPGSTLSFVGKRRGGNKLALKTGIVAKKQKTEDEVLTSKGDAWAKYMAEVKKYKAHQCGDDDKTRPLVK	2.125	0.2293	1.257	2.3903
